Test results from patent publication US20160045487A1, “COMPOSITIONS AND METHODS FOR TREATING NEUROPATHY” (CHILDEREN'S MEDICAL CENTER CORPORATION, priority 2013, published 2016).

B1: GDNF: Glial cell line-derived neurotrophic factor, GFRα1 ligand; purchased from Peprotech (protein, UniProt P39905 78-211, looked up)
Glial cell line-derived …: SPDKQMAVLPRRERNRQAAAANPENSRGKGRRGQRGKNRGCVLTAIHLNVTDLGLGYETKEELIFRYCSGSCDAAETTYDKILKNLSRNRRLVSDKVGQACCRPIAFDDDLSFLDDNLVYHILRKHSAKRCGCI
B2: NRTN: neuturin, GDNF family ligand of GFRα2; purchased from Peprotech (protein, UniProt Q99748 96-197, looked up)
Neurturin: ARLGARPCGLRELEVRVSELGLGYASDETVLFRYCAGACEAAARVYDLGLRRLRQRRRLRRERVRAQPCCRPTAYEDEVSFLDAHSRYHTVHELSARECACV

Experiments:
RET [1] = molecular target: T1, RET (Mus musculus, UniProt P35546); test: RET phosphorylation in control transfected (mGFP) N2A cells; format: cell-based, murine; conditions: 2 nM GDNF or 1 nM ARTN
T1 construct: endogenous in cells
T1 sequence (P35546 29-1115): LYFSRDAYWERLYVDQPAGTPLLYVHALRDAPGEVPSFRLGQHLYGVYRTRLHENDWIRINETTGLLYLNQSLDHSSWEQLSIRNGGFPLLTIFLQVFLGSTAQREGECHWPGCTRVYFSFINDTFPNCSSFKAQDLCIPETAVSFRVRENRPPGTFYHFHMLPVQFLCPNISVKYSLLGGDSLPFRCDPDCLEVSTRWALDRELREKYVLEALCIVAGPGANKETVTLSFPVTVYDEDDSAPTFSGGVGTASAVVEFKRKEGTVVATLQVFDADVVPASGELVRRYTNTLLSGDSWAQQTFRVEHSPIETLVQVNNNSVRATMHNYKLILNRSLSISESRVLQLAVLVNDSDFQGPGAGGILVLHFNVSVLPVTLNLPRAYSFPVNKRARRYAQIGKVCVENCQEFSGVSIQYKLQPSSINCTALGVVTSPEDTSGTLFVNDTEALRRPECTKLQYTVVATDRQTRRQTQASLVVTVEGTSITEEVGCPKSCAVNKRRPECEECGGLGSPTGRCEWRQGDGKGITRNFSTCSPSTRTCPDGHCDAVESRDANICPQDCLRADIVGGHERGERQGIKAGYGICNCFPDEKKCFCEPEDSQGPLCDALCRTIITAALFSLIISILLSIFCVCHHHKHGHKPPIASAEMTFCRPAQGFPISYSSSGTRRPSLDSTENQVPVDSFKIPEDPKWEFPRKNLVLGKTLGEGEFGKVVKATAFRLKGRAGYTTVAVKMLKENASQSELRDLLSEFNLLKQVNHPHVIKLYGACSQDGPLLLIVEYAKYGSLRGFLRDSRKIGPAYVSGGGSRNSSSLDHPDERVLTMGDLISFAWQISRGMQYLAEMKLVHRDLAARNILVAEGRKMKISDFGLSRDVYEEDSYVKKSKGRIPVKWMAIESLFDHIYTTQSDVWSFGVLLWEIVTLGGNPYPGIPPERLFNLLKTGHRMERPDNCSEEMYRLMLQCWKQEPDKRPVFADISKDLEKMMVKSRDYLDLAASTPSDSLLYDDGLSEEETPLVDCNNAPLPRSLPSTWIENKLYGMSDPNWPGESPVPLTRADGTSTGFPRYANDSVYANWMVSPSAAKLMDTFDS
Experimental: (§1) Since the original report argued that XIB4035 displaces GDNF binding to GFRα1 expressing cells (FIG. 2 in Tokugawa et al., Neurochem Int 42, 81-86 (2003).), potentially ARTN, on TH-luciferase activity and Ret phosphorylation. […] In this experiment, cells were treated with GDNF or ARTN with or without XIB4035 for 10 minutes and cell lysates were either collected immediately or treatment was washed out and replaced with growth media for 30, 60, or 120 minutes. […] Therefore, we tested cells expressing only one GFRα using either N2A cells (which express RET) transfected with GFRα1 or GFRα3 expression constructs, or B(E)2-C cells, which express only GFRα2 together with RET. […] The GFRα1 or GFRα3 transfected N2A cells were then treated with XIB4035 alone, the appropriate ligand for the expressed receptor alone, or XIB4035 and ligand in combination for 10 minutes, and collected lysates immediately after treatment or 60 minutes after washout. […] Similar results were obtained with GFRα2 and NRTN using B(E)2-C cells (FIG. 8). Thus, XIB4035 is a positive modulator of signaling by GDNF family ligands and their receptors, not an agonist for GFRα1 as previously reported. […]

GFRα3/RET = molecular target: T2, GFRα3/RET (UniProt O60609+P35546); test: RET phosphorylation in N2A cells transfected with GFRα3; format: cell-based, human GFRα3 in murine N2A cells; conditions: 1 nM ARTN
T2 construct: N2A cells (which express RET) transfected with GFRα1 or GFRα3 expression constructs; expressed in transfected cells; host or cells: Neuro2A (N2A) cells; GFRα3 plasmid was a gift from Dr. Milbrandt; RET is endogenous
T2 sequence (O60609 32-374 limits assumed): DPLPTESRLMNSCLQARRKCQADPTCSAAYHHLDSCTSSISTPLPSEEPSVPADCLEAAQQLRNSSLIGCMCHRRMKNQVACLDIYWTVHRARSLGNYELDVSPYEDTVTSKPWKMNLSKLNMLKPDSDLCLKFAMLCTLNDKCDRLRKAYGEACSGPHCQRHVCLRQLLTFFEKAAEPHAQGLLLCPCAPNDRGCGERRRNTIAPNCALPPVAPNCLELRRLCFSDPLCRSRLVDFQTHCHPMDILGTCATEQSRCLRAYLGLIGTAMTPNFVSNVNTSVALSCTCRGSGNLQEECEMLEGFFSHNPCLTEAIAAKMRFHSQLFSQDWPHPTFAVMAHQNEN
T2 sequence (P35546 29-1115): as the sequence (P35546 29-1115) above
Experimental: (§2) Since the original report argued that XIB4035 displaces GDNF binding to GFRα1 expressing cells (FIG. 2 in Tokugawa et al., Neurochem Int 42, 81-86 (2003).), potentially ARTN, on TH-luciferase activity and Ret phosphorylation. […] In this experiment, cells were treated with GDNF or ARTN with or without XIB4035 for 10 minutes and cell lysates were either collected immediately or treatment was washed out and replaced with growth media for 30, 60, or 120 minutes. […] Therefore, we tested cells expressing only one GFRα using either N2A cells (which express RET) transfected with GFRα1 or GFRα3 expression constructs, or B(E)2-C cells, which express only GFRα2 together with RET. […] The GFRα1 or GFRα3 transfected N2A cells were then treated with XIB4035 alone, the appropriate ligand for the expressed receptor alone, or XIB4035 and ligand in combination for 10 minutes, and collected lysates immediately after treatment or 60 minutes after washout. […] Similar results were obtained with GFRα2 and NRTN using B(E)2-C cells (FIG. 8). Thus, XIB4035 is a positive modulator of signaling by GDNF family ligands and their receptors, not an agonist for GFRα1 as previously reported.
(§3) For phosphorylated Ret immunoblot experiments, cells were treated with various combinations of molecules for 10 minutes and either collected immediately or had treatment washed out and returned to control treatment media for the times indicated prior to cell collection. Lysates were collected in buffer containing: 50 mM Tris-HCL, 1% TX-100, 0.25% Deoxycholic acid, 150 mM sodium chloride, 1 mM EDTA, 0.1 mM sodium fluoride, 0.1 mM sodium pyrophosphate, 0.02 mM sodium orthovanadate, and protease inhibitors Immunoblots were blocked in 5% bovine serum albumin in tris-buffered saline+0.2% Tween 20+0.1 mM sodium fluoride, 0.1 mM sodium pyrophosphate, and 0.02 mM sodium orthovanadate and probed in blocking solution using anti-phospotyrosine (4G10) mouse monoclonal antibody (1:2000; EMD Milipore Corp., Billerica, Mass.). […]

[2] = test system: GFRα/RET receptor signaling; test: Tyrosine hydroxylase promoter luciferase reporter assay in SH-SY5Y-THpGL3 cells; format: cell-based, human; conditions: for maximal effect, luciferase activity: 18 nM ligand alone; for minimal ligand dose necessary to induce luciferase activity above control / luciferase activity versus ligand concentration: ligand alone; for minimal ligand dose necessary to induce luciferase activity above control: 10 minutes, washout, overnight; for luciferase activity versus ligand concentration: luciferase measured 18 hours later
Excerpt: (§4) One goal of these studies was to determine if XIB4035 could be used for treating SFN in humans. Using the Neuro2A (N2A) murine neuroblastoma cell line, Tokugawa et al. (supra) reported XIB4035 as a competitive agonist for the GDNF receptor GFRα1 that activates the RET receptor. Since populations of DRG sensory neurons express different GFRα receptors, thus making them preferentially responsive to the particular ligands, it was important to determine if XIB4035 was specific to GFRα1 or could act on other family members. Since PSPN has no effect on peripheral sensory neurons, the GFRα1, GFRα2, and GFRα3 receptors were the focus of these studies. The SH-SY5Y, a human neuroblastoma cell line expressing mRNA for GFRα1, GFRα2, and GFRα3, was used to perform two cell-based assays; immunoblots measuring RET phosphorylation and a luciferase reporter assay using the tyrosine hydroxylase (TH) promoter. For the latter two paradigms were used, either overnight treatment immediately followed by luciferase activity measurements or 10 minute treatments followed by washout and overnight incubation prior to measurements. GDNF and ARTN induced robust TH-luciferase activity in a dose dependent manner (FIG. 3E). Because the responses to GDNF and ARTN were more robust, these two factors were chosen for further analysis.
The tyrosine hydroxylase promoter was cloned into the pGL3 basic vector (Promega, Madison, Wis., USA) at the Mlu I and Hind III sites, as previously described (Zwick, supra) (TH-pGL3). Briefly, a 2 Kb promoter region upstream from the transcription initiation site of the rat TH gene was cloned from genomic DNA using the primer sequences, […] and […]. SH-SY5Y cells were co-transfected with the TH-pGL3 and the pBabe-puromycin expression vectors at a molar ratio of 10:1. Cells were selected for stable puromycin resistance at a final concentration of 0.5 μg/ml of puromycin-dihydrochloride. Stable colonies were selected and tested for TH-directed luciferase response to GDNF family ligand stimulation. One stable clone, SH-SY5Y-THpGL3, with good signal-to-noise ratio was selected for use in the experiments.
SH-SY5Y-THpGL3 cells were maintained in DMEM/F12, 5% FBS, and 1% penicillin/streptomycin and plated on collagen coated plates (4 μg/ml). Neuro-2A cells were grown in MEM, 5% FBS, and 1% penicillin/streptomycin. BE(2)-C cells were grown in DMEM/F12 media containing 5% FBS and 1% penicillin/streptomycin. PC-12 cells were maintained in media containing RPMI-1640, 10% horse serum, 5% FBS, and 1% penicillin/streptomycin on collagen coated plates. For luciferase assays, cells were treated for either 10 minutes with washout or overnight with various molecules and assayed for firefly luciferase 16-24 hours post-treatment using the luciferase assay system (Promega, Madison, Wis., USA).

RET [3] = molecular target: T3, RET (Homo sapiens, UniProt P07949+P56159); test: RET phosphorylation phospho-tyrosine Western blot in SH-SY5Y cells; format: cell-based; conditions: 2 nM GDNF, two or 10 minutes
T3 construct: endogenous in cells; host or cells: SH-SY5Y (SH-SY5Y-THpGL3) human neuroblastoma cells
T3 sequence (P07949 29-1114): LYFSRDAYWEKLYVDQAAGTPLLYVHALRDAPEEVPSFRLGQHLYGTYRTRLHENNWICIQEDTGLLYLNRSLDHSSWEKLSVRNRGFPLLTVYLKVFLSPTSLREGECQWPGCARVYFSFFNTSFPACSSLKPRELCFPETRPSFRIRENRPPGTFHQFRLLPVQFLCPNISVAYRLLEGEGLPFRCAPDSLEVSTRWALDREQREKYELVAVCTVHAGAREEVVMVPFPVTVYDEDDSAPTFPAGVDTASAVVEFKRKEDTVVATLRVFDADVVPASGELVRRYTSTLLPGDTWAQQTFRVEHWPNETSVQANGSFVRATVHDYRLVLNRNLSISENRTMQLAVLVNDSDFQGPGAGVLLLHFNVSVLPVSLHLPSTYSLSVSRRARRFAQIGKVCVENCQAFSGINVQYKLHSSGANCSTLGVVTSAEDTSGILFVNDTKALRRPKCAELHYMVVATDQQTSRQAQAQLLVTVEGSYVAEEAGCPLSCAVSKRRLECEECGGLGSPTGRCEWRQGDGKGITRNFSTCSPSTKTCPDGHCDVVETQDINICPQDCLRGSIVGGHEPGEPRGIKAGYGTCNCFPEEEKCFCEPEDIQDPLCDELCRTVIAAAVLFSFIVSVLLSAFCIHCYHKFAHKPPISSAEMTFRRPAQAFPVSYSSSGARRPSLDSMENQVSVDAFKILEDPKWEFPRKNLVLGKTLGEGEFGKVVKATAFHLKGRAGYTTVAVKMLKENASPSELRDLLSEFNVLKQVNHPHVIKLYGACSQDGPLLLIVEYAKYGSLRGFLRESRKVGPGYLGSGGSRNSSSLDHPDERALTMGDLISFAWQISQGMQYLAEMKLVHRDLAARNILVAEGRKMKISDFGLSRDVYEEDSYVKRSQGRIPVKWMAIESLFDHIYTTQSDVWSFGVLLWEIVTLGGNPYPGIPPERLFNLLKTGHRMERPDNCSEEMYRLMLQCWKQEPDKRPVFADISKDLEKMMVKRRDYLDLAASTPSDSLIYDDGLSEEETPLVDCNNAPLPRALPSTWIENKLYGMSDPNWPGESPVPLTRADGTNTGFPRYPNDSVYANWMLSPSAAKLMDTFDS
T3 sequence (P56159 25-429 limits assumed): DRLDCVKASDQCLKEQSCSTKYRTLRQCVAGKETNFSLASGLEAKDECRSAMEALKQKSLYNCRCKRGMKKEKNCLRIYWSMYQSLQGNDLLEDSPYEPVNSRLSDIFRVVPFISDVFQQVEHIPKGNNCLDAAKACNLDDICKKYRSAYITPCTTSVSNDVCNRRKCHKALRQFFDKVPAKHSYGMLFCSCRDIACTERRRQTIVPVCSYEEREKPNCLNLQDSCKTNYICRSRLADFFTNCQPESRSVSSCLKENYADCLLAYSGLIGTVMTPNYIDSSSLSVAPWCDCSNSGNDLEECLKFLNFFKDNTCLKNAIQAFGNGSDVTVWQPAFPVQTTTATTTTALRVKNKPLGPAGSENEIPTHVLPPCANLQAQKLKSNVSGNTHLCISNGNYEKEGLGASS
Excerpt: as §4
Since the original report argued that XIB4035 displaces GDNF binding to GFRα1 expressing cells (FIG. 2 in Tokugawa et al., Neurochem Int 42, 81-86 (2003).), potentially ARTN, on TH-luciferase activity and Ret phosphorylation. […] In this experiment, cells were treated with GDNF or ARTN with or without XIB4035 for 10 minutes and cell lysates were either collected immediately or treatment was washed out and replaced with growth media for 30, 60, or 120 minutes. […] Therefore, we tested cells expressing only one GFRα using either N2A cells (which express RET) transfected with GFRα1 or GFRα3 expression constructs, or B(E)2-C cells, which express only GFRα2 together with RET. […]

GFRα1/RET = molecular target: T4, GFRα1/RET (UniProt P35546+Q62997); test: RET phosphorylation in N2A cells transfected with GFRα1; format: cell-based, rat GFRα1 in murine N2A cells; conditions: 2 nM GDNF
T4 construct: N2A cells (which express RET) transfected with GFRα1 or GFRα3 expression constructs; expressed in transfected cells; host or cells: Neuro2A (N2A) cells; GFRα1 plasmid was a gift from Dr. Milbrandt; RET is endogenous
T4 sequence (Q62997 25-430 limits assumed): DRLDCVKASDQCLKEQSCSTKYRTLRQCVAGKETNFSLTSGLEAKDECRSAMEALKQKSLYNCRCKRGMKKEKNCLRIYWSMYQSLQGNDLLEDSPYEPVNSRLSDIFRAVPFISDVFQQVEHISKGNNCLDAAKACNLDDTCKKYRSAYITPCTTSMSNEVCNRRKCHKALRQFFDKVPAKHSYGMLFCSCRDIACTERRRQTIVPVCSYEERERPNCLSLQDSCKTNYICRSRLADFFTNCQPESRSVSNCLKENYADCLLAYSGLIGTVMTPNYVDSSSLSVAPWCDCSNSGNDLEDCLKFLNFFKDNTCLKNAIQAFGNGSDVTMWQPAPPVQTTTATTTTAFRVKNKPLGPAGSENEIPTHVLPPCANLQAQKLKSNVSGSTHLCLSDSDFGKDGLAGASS
T4 sequence (P35546 29-1115): as the sequence (P35546 29-1115) above
Experimental: as §2, §3

GFRα2/RET = molecular target: T5, GFRα2/RET (Homo sapiens, UniProt O00451+P07949); test: NRTN/GFRα2-induced RET phosphorylation in B(E)2-C cells; format: cell-based; conditions: 2 nM NRTN alone, 10 minutes, then 60 minutes growth medium
T5 construct: B(E)2-C cells, which express only GFRα2 together with RET; endogenous in cells; host or cells: B(E)2-C / BE(2)-C cells
T5 sequence (O00451 22-444 limits assumed): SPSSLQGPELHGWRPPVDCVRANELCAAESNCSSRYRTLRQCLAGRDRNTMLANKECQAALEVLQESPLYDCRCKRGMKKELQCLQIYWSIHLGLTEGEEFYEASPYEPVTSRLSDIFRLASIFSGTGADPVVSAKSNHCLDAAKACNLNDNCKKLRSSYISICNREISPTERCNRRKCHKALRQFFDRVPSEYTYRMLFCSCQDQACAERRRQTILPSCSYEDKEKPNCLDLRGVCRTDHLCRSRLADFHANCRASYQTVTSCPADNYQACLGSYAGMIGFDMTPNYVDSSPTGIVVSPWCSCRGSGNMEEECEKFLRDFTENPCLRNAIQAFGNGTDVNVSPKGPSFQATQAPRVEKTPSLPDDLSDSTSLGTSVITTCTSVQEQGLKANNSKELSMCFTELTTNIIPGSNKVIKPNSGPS
T5 sequence (P07949 29-1114): as the sequence (P07949 29-1114) above
Experimental: B(E)2-C cells, which express GFRα2, were treated under different conditions (no treatment, 2 nM NRTN, or 2 nM NRTN with 20 μM XIB4035) for 10 minutes. Cells were either lysed immediately or after incubation in growth medium for an additional 60 minutes.
as §1, with “8).” for “8). Thus, XIB4035 is a positive modulator of signaling by GDNF family ligands and their receptors, not an agonist for GFRα1 as previously reported.”

| Molecule | RET phosphorylation (RET [1]) | RET phosphorylation (GFRα3/RET) | maximal effect, luciferase activity [2] [fold over control] | minimal ligand dose necessary to induce luciferase activity above control [2] [pM] | luciferase activity versus ligand concentration [2] | RET phosphorylation (RET [3]) | RET phosphorylation (GFRα1/RET) | TH promoter activity (luciferase) ([2]; 2 nM GDNF, 10 minutes then overnight in regular medium, or overnight) | RET phosphorylation at 60 min (GFRα2/RET) |
| --- | --- | --- | --- | --- | --- | --- | --- | --- | --- |
| ARTN: artemin, GDNF family ligand of GFRα3; purchased from Peprotech | No RET phosphorylation was detected | induced RET phosphorylation | 2.78±0.44 | 75 | dose-dependent increase |  |  |  |  |
| B1 | No RET phosphorylation was detected |  | 2.76±0.32 | 75 | dose-dependent increase | induced | induced RET phosphorylation | increases TH promoter activity |  |
| B2 |  |  |  |  | dose-dependent increase |  |  |  | not detectable |
